Experimental data from patent US6407214 (CELLTECH THERAPEUTICS, dated 2002).
“And” between values parts separate entries of the source, which are not always exact repeats. Equal entries are not always repeated.

B1: mouse ENA-2 (antibody, V domains shown)
VH: QVQLQQSGTELVRPGASVTLSCKASGYTFTDHEMHWVKQTPVLGLEWIGTIDPETGGTAYNQKFKGKATLTADKSSTTAYMDLRGLTSEDSAVFYCTVLRMDYWGQGTSLTVSA
VL: DIVMTQSPSSLTVTAGEKVTMRCKSSQSLLNSGNQQNYLTWYQQKPGQPPKLLIYWASTRESGVPDRFTGSGSGTDFTLTISSVQTEDLAVYYCQNDYDYPLTFGAGTKLEIKR
notes: Mouse IgG1/kappa whole antibody purified from hybridoma supernatant; The entries may include leader residues; also called mENA-2; murine ENA-2
B2: CDR-grafted ENA-2 (hENA-2 wt) (antibody, V domains shown)
VH: QVQLVQSGAEVKKPGSSVKVSCKASGYTFTDHEMHWVRQAPGQGLEWIGTIDPETGGTAYNQKFKGRATLTADKSTNTAYMDLSSLRSEDTAVYYCTVLRMDYWGQGTLVTVSS
VL: DIQMTQSPSTLSASVGDRVTITCKSSQSLLNSGNQQNYLTWYQQKPGKAPKLLIYWASTRESGVPDRFTGSGSGTDFTLTISSLQPDDFAVYYCQNDYDYPLTFGQGTKVEIKR
notes: CDR-grafted on human Eu frameworks, with a human kappa light chain (pENA204); Both gamma 1 (pENA212) and gamma 4 (pENA206) heavy chain vectors were made; The FcRI comparison uses the gamma 4 wild type; also called hEN2; gamma 4

What was measured:
[1] = target: T1, Lectin/EGF fragment from E-selectin (UniProt P16581 22-178, limits assumed); assay: BIAcore SPR, antibody immobilised, lectin/EGF fragment in fluid phase; duplicate
T1 construct: domain: Lectin/EGF fragment; Soluble fragment; also called lectin/EGF fragment of E-selectin
T1 sequence (looked up): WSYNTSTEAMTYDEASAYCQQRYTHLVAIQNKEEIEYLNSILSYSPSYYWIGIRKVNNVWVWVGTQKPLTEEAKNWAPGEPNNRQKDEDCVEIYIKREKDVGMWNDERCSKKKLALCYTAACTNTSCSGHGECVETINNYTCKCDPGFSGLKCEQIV
Procedure: (§1) The affinity of both mouse and CDR-grafted ENA-2 for E-selectin were measured using a BIAcore TH biosensor (Pharmacia). This instrument combines miniaturised fluid delivery with an optical detection system based on surface plasmon resonance, to monitor protein interactions in real time (Chaiken et al, (1991) Anal. Biochem 201 197–210). The antibodies were immobilised at similar densities onto the sensor surface and the lectin/EGF fragment of E-selectin used as antigen in the fluid phase.
(§2) Assays of both antibodies were run at the same time using the same dilutions of antigen. The KD measurements are given below. KD Measurements

[2] = target: T1, Lectin/EGF fragment from E-selectin; assay: BIAcore SPR, antibody immobilised, lectin/EGF fragment in fluid phase; average
Procedure: as §1, §2

Binder	Kd [1]	Kd [2] [nM]
B1	5.38 nM and 5.48 nM	5.43
B2	7.8 nM and 8.17 nM	7.98
